Experimental data: publication doi:10.1101/720938 (bioRxiv, 2019)

Target: the molecule itself
Test: cryo-EM structure

B1: PilA4, major pilin of Thermus thermophilus HB27 (subunit of the wide type IV pilus) (natural protein, T. thermophilus HB27, UniProt Q72JC0 7-131, looked up)
chain: FTLIELLIVIAIIAILAAVLIPNLLAARKRANDTVVTAYLNDAVKFQEMYQIDNNSYTSNQAALISLGLKSTPANVTFSIVSASANSYCMIAGHSGGTVWFAATPDKGVYKTNTAVTSSQPESCP
modifications: extra densities at Ser59, Ser66 and Ser71, suggested to be O-linked glycosylation; disulphide bond Cys89-Cys124
binding result: binds

B2: PilA5 (TT_C1836), pilin of Thermus thermophilus HB27 (subunit of the narrow type IV pilus) (natural protein, T. thermophilus HB27, UniProt Q72GL2 6-116, looked up)
chain: FTLIELAIVIVIIGILVAIAVPRFVDLTDQANQANVDATAAAVRSAYAIATVQAKGIPTCDQVFANPEGGSTSGSTWTSSDNSTTVSCNASADTFTISRGGKTRTLNLTVN
modifications: extra density at Ser73, suggested to be O-linked glycosylation; disulphide bond Cys60-Cys88
binding result: binds
